Earlier results as cited in paper PMC11045845 (Nature Communications, 2024).
No end group written: not given here.

How the values were obtained:
[1] = literature values for comparison
Description: Upon increasing the lipid concentration, the intensity at the emission maximum increased and the position of the maximum was blue-shifted to lower wavelengths. A maximum blue shift of (18 ± 2) nm in the presence of 2 mM POPC was determined (Fig. 2a, blue curve, Fig. 2b), accompanied by an increase in the maximum fluorescence intensity (Fig. 2a, c). The observed blue shift indicates the partitioning of the L-trypt ...

[2] = glycerylmonooleate BLMs
Text: For further support, single-channel proton conductance measurements would be desirable but cannot be performed at physiological conditions owing to orders of magnitudes too small proton concentrations.

Row | Substance | blue shift [1] | single-channel conductance GK+ [2]
1 | cecropin A (KWKLFKKIEKVGQNIRDGIIKAGPAVAVVGQATQIAK; ends and bridges not checked; UniProt P01507 27-63, looked up) [antimicrobial peptide] | 15 nm | 
2 | gramicidin A |  | ≈ 29 pS
3 | melittin | around 20 nm | 
